Molecular target: K. lactis 80S ribosome (40S and 60S subunits) (K. lactis)
Assay: co-sedimentation; 30 pmol eIF5B, 15 pmol K. lactis 80S ribosomes, 0.1 mM GDPNP in 30 uL of 20 mM Hepes pH 7.4, 50 mM KCl, 2 mM DTT, 2.5 mM Mg-acetate, 30 C for 5 min; pelleted through a 1 M sucrose cushion (80,000 rpm, 3 h, 4 C); pellets on SDS/PAGE, Coomassie, bands quantified and normalised to WT

fold reduction in ribosomal binding against WT | Substance
2 fold | eIF5B-DIII-h12-Loop mutant (K. lactis eIF5B 361-967, residues 835-839 in S. cerevisiae numbering / 800-804 in K. lactis substituted to alanine) (domain or fragment)
2 fold | eIF5B-YxA mutant (K. lactis eIF5B 361-967, Tyr837 in S. cerevisiae numbering / Tyr802 in K. lactis substituted to alanine) (domain or fragment)
